# Source: paper PMC10003650, “Characterization of a New Glucose-Tolerant GH1 β-Glycosidase from Aspergillus fumigatus with Transglycosylation Activity” (International Journal of Molecular Sciences, 2023)
# Assays:
# [1] = substrate: OCc1ccccc1O[C@@H]1O[C@H](CO)[C@@H](O)[C@H](O)[C@H]1O; experiment: DNS method for released glucose, non-linear regression; format: biochemical, Aspergillus fumigatus; conditions: 50 mM sodium phosphate pH 6.0, 40 °C, 30 min
# Text: DNS method for released glucose, non-linear regression on AfBgl1.3
# [2] = substrate: O=[N+]([O-])c1ccc(O[C@@H]2O[C@H](CO)[C@@H](O)[C@H](O)[C@H]2O)cc1; experiment: purified protein; format: biochemical, Aspergillus fumigatus; conditions: 50 mM sodium phosphate pH 6.0, 40 °C, 30 min
protein,measurement,setting,value
AfBgl1.3 (Aspergillus fumigatus Af293) (protein) MGSTTTSTLPPDFLWGFATASYQIEGAVDEDGRGPSIWDTFCKIPGKIAGGASGEVACDSYHRTHEDIALLKECGAKAYRFSISWSRVIPLGGRNDPVNEKGLQHYVKFVDDLLAAGITPLVTLFHWDLPDALDKRYGGLLNKEEFVADFANYARVMFNAFGSKVKYWITFNEPWCSSVLGYNVGQFAPGRTSDRTKSPVGDGSREPWIVGHNILVAHGAAVKIYREEFKPRDGGEIGITLNGDWAEPWDPENPADVEACDRKIEFAISWFADPIYHGKYPDSMVKQLGDRLPTWTPEDIALVHGSNDFYGMNHYCANYIKAKTGEPDPNDVAGNLEILLQNKNGEWIGPETQSPWLRPHPIGFRKLLKWLSDRYNQPKIYVTENGTSLKGESDLPVDQIVNDDFRVQYFREYIAAMADAYTLDGVNVRAYMAWSLMDNFEWAEGYETRFGVTFVDYANNQRRIPKKSAKVLREIFDQYIEKA,Km,[1],17.6 ± 1.9 mM
same,Vmax,[1],706 µmol/min/mg
same,kcat,[1],622 s⁻¹
same,kcat/Km,[1],35000 M⁻¹ s⁻¹
same,Km,[2],7.6 ± 0.8 mM
same,Vmax,[2],656 µmol/min/mg
same,kcat,[2],596 s⁻¹
same,kcat/Km,[2],78000 M⁻¹ s⁻¹
